Read-outs that look alike come from different tables or passages of the source.
Columns and labels:
Assay in all cases: BLI
hPAD4 Y435A = hPAD4 Y435A (human, UniProt Q9UM07 1-663, Y435A)
hPAD4 N438R = hPAD4 N438R (human, UniProt Q9UM07 1-663, N438R)
[1] = molecular target: hPAD4 R8E–Y435A double mutant (human, UniProt Q9UM07 1-663, R8E | Y435A)
[2] = molecular target: T1, human protein arginine deiminase 4 (hPAD4), wild type (human, UniProt Q9UM07 1-663, biotin on the N-terminal AviTag)
[3] = molecular target: T1, human protein arginine deiminase 4 …; remark: listed apart in the source
[4] = molecular target: T1, human protein arginine deiminase 4 …; remark: listed apart in the source

T1 sequence (Q9UM07 whole entry): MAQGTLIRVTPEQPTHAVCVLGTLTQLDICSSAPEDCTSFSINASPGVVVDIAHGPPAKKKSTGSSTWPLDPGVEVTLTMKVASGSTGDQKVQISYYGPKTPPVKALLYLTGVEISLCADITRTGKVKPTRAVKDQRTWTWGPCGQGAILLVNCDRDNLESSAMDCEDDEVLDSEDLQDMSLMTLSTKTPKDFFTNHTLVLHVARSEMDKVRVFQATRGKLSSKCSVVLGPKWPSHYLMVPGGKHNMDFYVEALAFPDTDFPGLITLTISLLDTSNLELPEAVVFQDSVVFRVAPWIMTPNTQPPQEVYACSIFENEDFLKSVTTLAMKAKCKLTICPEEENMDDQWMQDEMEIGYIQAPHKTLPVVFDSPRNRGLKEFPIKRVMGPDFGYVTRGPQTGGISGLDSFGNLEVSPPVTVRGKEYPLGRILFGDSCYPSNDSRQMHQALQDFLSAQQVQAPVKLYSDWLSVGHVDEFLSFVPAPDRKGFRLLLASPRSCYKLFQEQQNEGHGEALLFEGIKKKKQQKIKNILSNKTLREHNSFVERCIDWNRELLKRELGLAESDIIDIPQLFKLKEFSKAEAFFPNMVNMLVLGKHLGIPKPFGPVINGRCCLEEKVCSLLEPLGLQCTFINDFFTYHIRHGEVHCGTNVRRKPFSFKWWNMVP
Chain of hPAD4 N438R (Q9UM07 whole entry N438R): as the sequence (Q9UM07 whole entry) above, with N438R counted along it
Chain of hPAD4 Y435A (Q9UM07 whole entry Y435A): as the sequence (Q9UM07 whole entry) above, with Y435A counted along it
Chain of hPAD4 R8E–Y435A double mutant (Q9UM07 whole entry R8E/Y435A): as the sequence (Q9UM07 whole entry) above, with R8E, Y435A counted along it

| Kd [3] | Kd [4] | Binder | further results |
| --- | --- | --- | --- |
|  |  | hA362 Fab (Fab, V domains shown) VH: EVQLVESGGGLVQPGGSLRLSCAASGFNVSYYSIHWVRQAPGKGLEWVASISPYYGSTYYADSVKGRFTISADTSKNTAYLQMNSLRAEDTAVYYCARHPYRKGYSGLDYWGQGTLVTVSS VL: DIQMTQSPSSLSASVGDRVTITCRASQSVSSAVAWYQQKPGKAPKLLIYSASSLYSGVPSRFSGSRSGTDFTLTISSLQPEDFATYYCQQSSYLPLFTFGQGTKVEIK | Kd (hPAD4 Y435A): 17.5 nM; Kd (hPAD4 N438R): 1.56 nM; Kd [1]: 269 nM; Kd [2]: 1.7 nM |
| 1.3 nM |  | E6 (affinity-matured variant of hI365) (antibody, V domains shown) VH: EVQLVESGGGLVQPGGSLRLSCAASGFNFYYSIHWVRQAPGKGLEWVASISPYTDRTSYADSVKGRFTISADTSKNTAYLQMNSLRAEDTAVYYCARKHPGRYPNWGFALDYWGQGTLVTVSS VL: DIQMTQSPSSLSASVGDRVTITCRASQSVSSAVAWYQQKPGKAPKLLIYSASSLYSGVPSRFSGSRSGTDFTLTISSLQPEDFATYYCQQSMSSQLVTFGQGTKVEIK |  |
|  | 0.001 nM | hA362 IgG (antibody, V domains shown) VH: EVQLVESGGGLVQPGGSLRLSCAASGFNVSYYSIHWVRQAPGKGLEWVASISPYYGSTYYADSVKGRFTISADTSKNTAYLQMNSLRAEDTAVYYCARHPYRKGYSGLDYWGQGTLVTVSS VL: DIQMTQSPSSLSASVGDRVTITCRASQSVSSAVAWYQQKPGKAPKLLIYSASSLYSGVPSRFSGSRSGTDFTLTISSLQPEDFATYYCQQSSYLPLFTFGQGTKVEIK |  |
| 2.4 nM |  | E3 (affinity-matured variant of hI365) (antibody, V domains shown) VH: EVQLVESGGGLVQPGGSLRLSCAASGFNFFYSIHWVRQAPGKGLEWVASISPYTDYTSYADSVKGRFTISADTSKNTAYLQMNSLRAEDTAVYYCARKHPGSYPFWGFALDYWGQGTLVTVSS VL: DIQMTQSPSSLSASVGDRVTITCRASQSVSSAVAWYQQKPGKAPKLLIYSASSLYSGVPSRFSGSRSGTDFTLTISSLQPEDFATYYCQQSSSSLVTFGQGTKVEIK |  |
|  | 1.8 nM | hI365 IgG (antibody, V domains shown) VH: EVQLVESGGGLVQPGGSLRLSCAASGFNFYYSIHWVRQAPGKGLEWVASISPYSGYTSYADSVKGRFTISADTSKNTAYLQMNSLRAEDTAVYYCARKHPGSYPFWGWALDYWGQGTLVTVSS VL: DIQMTQSPSSLSASVGDRVTITCRASQSVSSAVAWYQQKPGKAPKLLIYSASSLYSGVPSRFSGSRSGTDFTLTISSLQPEDFATYYCQQSSSSLVTFGQGTKVEIK |  |

Reference: publication PMC11142921 (2024)
